Test results as given in article doi:10.1101/2025.06.13.659497.

Molecular target: biotinylated recombinant bovine serum albumin with N-terminal Avi tag (rBSA-Bt) (Bos taurus)
Assay: SPR

surface density: 28 ng/cm^2
Substance: streptavidin (from UniProt P22629 25-183) (natural protein)
